Results from article doi:10.1101/2023.12.22.573140.

Columns and labels:
Experiment in all cases: ITC
[1] = biological target: TGF-β mimic 6 (TGM6), full-length (Heligmosomoides polygyrus)
[2] = biological target: TGM6 domain 3 (TGM6-D3) (Heligmosomoides polygyrus)
[3] = biological target: TGF-β type II receptor (TβRII) (UniProt P37173)

Substance	fold decrease in binding affinity against wild type [3]	also measured
TGF-β type II receptor (TβRII) (from UniProt P37173 46-155)		Kd [1]: 220 nM; Kd [2]: 440 nM
TGM1-D3 S242R (domain or fragment)		fold gain of binding affinity against wild type [3]: 4 fold
TGM6-D3 I78A (domain or fragment)	15.4 fold	
TGM6-D3 R38A (domain or fragment)	22 fold	
TGM6-D3 R82A (domain or fragment)	11 to 12 fold	
TGM6-D3 R82S (domain or fragment)		fold loss of binding affinity against wild type [3]: 7.4 fold
TGM6-D3 R95A (domain or fragment)	11.6 fold	
TGM6-D3 Y80A (domain or fragment)	134 fold	
TGM6-D3 Y80F (domain or fragment)	3.5 fold	
TGM6-D3 Y93A (domain or fragment)	108 fold	
